Measured values taken from publication doi:10.1101/2021.02.03.429618 (bioRxiv, 2021).

Target: T1, human 2-oxoglutarate dehydrogenase (hE1o) (human, UniProt Q02218 41-1023)
T1 sequence (looked up): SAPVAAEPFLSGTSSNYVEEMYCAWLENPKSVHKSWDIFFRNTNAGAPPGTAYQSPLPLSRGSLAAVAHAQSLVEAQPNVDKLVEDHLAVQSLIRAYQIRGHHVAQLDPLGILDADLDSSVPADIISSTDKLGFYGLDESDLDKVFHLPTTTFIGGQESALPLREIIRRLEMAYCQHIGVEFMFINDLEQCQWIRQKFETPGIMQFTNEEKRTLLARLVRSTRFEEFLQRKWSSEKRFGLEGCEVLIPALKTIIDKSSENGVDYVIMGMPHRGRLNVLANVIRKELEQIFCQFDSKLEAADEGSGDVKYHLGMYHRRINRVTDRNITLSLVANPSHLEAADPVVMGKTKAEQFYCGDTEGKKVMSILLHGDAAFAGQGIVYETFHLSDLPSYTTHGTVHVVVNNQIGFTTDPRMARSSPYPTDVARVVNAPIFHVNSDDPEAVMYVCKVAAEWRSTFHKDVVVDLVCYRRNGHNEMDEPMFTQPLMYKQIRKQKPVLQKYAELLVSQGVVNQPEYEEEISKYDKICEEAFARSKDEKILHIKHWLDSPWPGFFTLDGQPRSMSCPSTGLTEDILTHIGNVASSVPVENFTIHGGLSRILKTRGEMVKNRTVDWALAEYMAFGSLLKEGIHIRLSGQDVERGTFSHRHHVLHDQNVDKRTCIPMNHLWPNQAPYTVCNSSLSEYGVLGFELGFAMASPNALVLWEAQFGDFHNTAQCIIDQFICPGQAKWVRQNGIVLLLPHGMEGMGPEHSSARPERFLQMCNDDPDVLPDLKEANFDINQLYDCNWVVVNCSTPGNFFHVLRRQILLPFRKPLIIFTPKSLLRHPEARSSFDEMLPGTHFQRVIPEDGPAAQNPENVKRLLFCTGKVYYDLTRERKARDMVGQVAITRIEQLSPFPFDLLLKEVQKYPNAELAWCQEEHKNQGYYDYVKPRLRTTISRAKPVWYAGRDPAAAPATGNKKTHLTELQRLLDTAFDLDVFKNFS
Assay: cross-linking

binding result: binds
B1: human dihydrolipoyl succinyltransferase (hE2o) (enzyme, UniProt P36957 68-453, looked up)
chain: DDLVTVKTPAFAESVTEGDVRWEKAVGDTVAEDEVVCEIETDKTSVQVPSPANGVIEALLVPDGGKVEGGTPLFTLRKTGAAPAKAKPAEAPAAAAPKAEPTAAAVPPPAAPIPTQMPPVPSPSQPPSGKPVSAVKPTVAPPLAEPGAGKGLRSEHREKMNRMRQRIAQRLKEAQNTCAMLTTFNEIDMSNIQEMRARHKEAFLKKHNLKLGFMSAFVKASAFALQEQPVVNAVIDDTTKEVVYRDYIDISVAVATPRGLVVPVIRNVEAMNFADIERTITELGEKARKNELAIEDMDGGTFTISNGGVFGSLFGTPIINPPQSAILGMHGIFDRPVAIGGKVEVRPMMYVALTYDHRLIDGREAVTFLRKIKAAVEDPRVLLLDL
